{"source": "paper PMC4041426", "about": "“Structural basis for binding the TREX2 complex to nuclear pores, GAL1 localisation and mRNA export” (Nucleic Acids Research, 2014)", "binders": {"B1": {"name": "Sac3^757–787 (domain or fragment, S. cerevisiae, UniProt P46674 757-787, looked up)", "chain": "RKDFIDTMTRELYDAFLHERLYLIYMDSRAE", "notes": "source: E. coli BL21 (DE3) CodonPlus RIL, purified in complex with Sus1B"}, "B2": {"name": "Sac3^757–787:Sus1B (complex, S. cerevisiae)", "chain 1": "RKDFIDTMTRELYDAFLHERLYLIYMDSRAE", "chain 2": "MTMDTAQLKSQIQQYLVESGNYELISNELKARLLQEGWVDKVKDLTKSEMNINESTNFTQILSTVEPKALEMVSDSTRETVLKQIREFLEEIVDTQ", "notes": "Sus1, S. cerevisiae (the Sus1B chain); also called B sub-complex; Sac3:Sus1B; copies: 1 + 1"}, "B3": {"name": "GST-Nup1^191–385 (domain or fragment, S. cerevisiae, UniProt P20676 191-385, looked up)", "chain": "KNRSNRKRFHSQSKGTVWSANFEYDLSEYDAIQKKDNKDKEGNAGGDQKTSENRNNIKSSISNGNLATGPNLTSEIEDLRADINSNRLSNPQKNLLLKGPASTVAKTAPIQESFVPNSERSGTPTLKKNIEPKKDKESIVLPTVGFDFIKDNETPSKKTSPKATSSAGAVFKSSVEMGKTDKSTKTAEAPTLSFN", "notes": "source: E. coli BL21 (DE3) CodonPlus RIL; immobilised on Glutathione Sepharose 4B from clarified lysate; not shown: GST, N-terminal, kept"}}, "settings_in_all_cases": "both partners purified", "key": {"[1]": {"molecular_target": "B1", "assay": "crystal structure; Nup1^322–355 mixed 6:1 with Sac3^757–787:Sus1B (15 mg/ml); 2.2–2.35 M ammonium sulphate, 100 mM Na citrate pH 5.6; P3_(2)21, 3.0 Å"}, "[2]": {"molecular_target": "T1, Sus1 (S. cerevisiae, UniProt Q6WNK7 1-96)", "T1 construct": "Sus1, S. cerevisiae; also called Sus1A; Sus1B; source: E. coli BL21 (DE3) CodonPlus RIL; in clarified lysate (assembly pull-down), purified within Sac3 complexes (crystals)", "T1 sequence": "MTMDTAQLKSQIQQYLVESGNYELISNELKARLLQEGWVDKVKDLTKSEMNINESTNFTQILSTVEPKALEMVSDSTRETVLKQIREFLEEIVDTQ", "assay": "crystal structure; Nup1^322–355 mixed 6:1 with Sac3^757–787:Sus1B (15 mg/ml); 2.2–2.35 M ammonium sulphate, 100 mM Na citrate pH 5.6; P3_(2)21, 3.0 Å"}, "[3]": {"molecular_target": "B2", "assay": "crystal structure; Nup1^322–355 mixed 6:1 with Sac3^757–787:Sus1B (15 mg/ml); 2.2–2.35 M ammonium sulphate, 100 mM Na citrate pH 5.6; P3_(2)21, 3.0 Å"}, "[4]": {"molecular_target": "B3", "assay": "pull-down; GST-Nup fusion (or GST) immobilised on Glutathione Sepharose 4B from clarified bacterial lysate and washed with PBS-DTT; purified Sac3^CID complex, sub-complex, mutant variant or Kap95 added at 15.4 μM; 4°C, 1 h; SDS-PAGE and Coomassie staining"}, "[5]": {"molecular_target": "T2, Sac3^753–805:Sus1B:Cdc31 complex (S. cerevisiae, UniProt P46674 753-805; Q6WNK7 1-96; P06704 1-161)", "T2 construct": "Sac3, S. cerevisiae, residues 753–805 (BC); Sus1, S. cerevisiae (the Sus1B chain); Cdc31, S. cerevisiae; also called BC sub-complex; source: E. coli BL21 (DE3) CodonPlus RIL; cells with co-expressed Sac3:Cdc31 mixed with cells with Sus1; copies: 1 + 1 + 1", "T2 sequence 1": "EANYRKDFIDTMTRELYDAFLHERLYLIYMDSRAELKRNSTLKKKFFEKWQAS", "T2 sequence 2": "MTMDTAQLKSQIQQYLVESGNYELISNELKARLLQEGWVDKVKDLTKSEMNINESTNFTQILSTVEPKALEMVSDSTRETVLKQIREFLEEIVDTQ", "T2 sequence 3": "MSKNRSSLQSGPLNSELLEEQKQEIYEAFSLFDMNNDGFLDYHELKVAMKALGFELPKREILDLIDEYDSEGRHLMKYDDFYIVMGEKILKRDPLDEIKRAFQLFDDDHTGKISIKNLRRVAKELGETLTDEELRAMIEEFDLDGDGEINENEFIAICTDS", "assay": "pull-down; GST-Nup fusion (or GST) immobilised on Glutathione Sepharose 4B from clarified bacterial lysate and washed with PBS-DTT; purified Sac3^CID complex, sub-complex, mutant variant or Kap95 added at 15.4 μM; 4°C, 1 h; SDS-PAGE and Coomassie staining"}, "[6]": {"molecular_target": "T3, Kap95 (yeast, UniProt Q06142 1-861)", "T3 construct": "Kap95 (protein import karyopherin), yeast; also called karyopherin Kap95; yeast Kap95", "T3 sequence (looked up)": "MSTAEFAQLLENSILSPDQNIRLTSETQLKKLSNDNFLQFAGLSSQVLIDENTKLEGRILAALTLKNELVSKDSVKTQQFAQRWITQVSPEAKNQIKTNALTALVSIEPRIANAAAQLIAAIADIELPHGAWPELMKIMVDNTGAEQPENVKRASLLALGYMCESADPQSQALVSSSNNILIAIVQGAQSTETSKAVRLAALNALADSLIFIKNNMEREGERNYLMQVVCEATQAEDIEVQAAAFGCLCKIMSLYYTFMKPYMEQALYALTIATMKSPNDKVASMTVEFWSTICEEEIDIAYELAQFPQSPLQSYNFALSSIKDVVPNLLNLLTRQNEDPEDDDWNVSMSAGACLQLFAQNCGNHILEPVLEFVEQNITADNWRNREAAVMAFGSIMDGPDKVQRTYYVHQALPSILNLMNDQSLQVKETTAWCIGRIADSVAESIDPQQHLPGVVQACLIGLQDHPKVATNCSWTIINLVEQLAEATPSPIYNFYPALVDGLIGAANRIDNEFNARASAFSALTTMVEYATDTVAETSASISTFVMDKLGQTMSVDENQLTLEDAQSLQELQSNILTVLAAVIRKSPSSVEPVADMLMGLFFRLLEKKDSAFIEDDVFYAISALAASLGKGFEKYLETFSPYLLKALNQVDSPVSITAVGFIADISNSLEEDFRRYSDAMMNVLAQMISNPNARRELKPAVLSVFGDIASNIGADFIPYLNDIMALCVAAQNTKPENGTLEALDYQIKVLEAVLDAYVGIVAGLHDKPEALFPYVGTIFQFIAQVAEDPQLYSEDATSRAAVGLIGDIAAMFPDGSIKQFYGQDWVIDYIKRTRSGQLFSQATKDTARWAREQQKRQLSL", "assay": "pull-down; GST-Nup fusion (or GST) immobilised on Glutathione Sepharose 4B from clarified bacterial lysate and washed with PBS-DTT; purified Sac3^CID complex, sub-complex, mutant variant or Kap95 added at 15.4 μM; 4°C, 1 h; SDS-PAGE and Coomassie staining"}, "[7]": {"molecular_target": "T2, Sac3^753–805:Sus1B:Cdc31 complex", "assay": "crystal structure; Nup1^316–340 mixed 7:1 with Sac3^753–805:Sus1B:Cdc31 (14.6 mg/ml); 16% PEG600, 2% PEG 1K, 10% glycerol, 100 mM MES pH 6.0; P2_(1), 2.6 Å"}, "[8]": {"molecular_target": "T1, Sus1", "assay": "crystal structure; Nup1^316–340 mixed 7:1 with Sac3^753–805:Sus1B:Cdc31 (14.6 mg/ml); 16% PEG600, 2% PEG 1K, 10% glycerol, 100 mM MES pH 6.0; P2_(1), 2.6 Å"}, "[9]": {"molecular_target": "T4, Cdc31 (S. cerevisiae, UniProt P06704 1-161)", "T4 construct": "Cdc31, S. cerevisiae; source: E. coli BL21 (DE3) CodonPlus RIL, co-expressed with Sac3 fragments; in clarified lysate (assembly pull-down), purified within Sac3 complexes (crystals)", "T4 sequence": "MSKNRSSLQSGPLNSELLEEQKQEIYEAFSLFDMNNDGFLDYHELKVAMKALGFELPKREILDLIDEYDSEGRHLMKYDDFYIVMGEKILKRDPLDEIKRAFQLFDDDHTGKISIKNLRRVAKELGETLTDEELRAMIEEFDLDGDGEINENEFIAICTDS", "assay": "crystal structure; Nup1^316–340 mixed 7:1 with Sac3^753–805:Sus1B:Cdc31 (14.6 mg/ml); 16% PEG600, 2% PEG 1K, 10% glycerol, 100 mM MES pH 6.0; P2_(1), 2.6 Å"}}, "data": [{"binder": "PKKDKESIVLPTVGFDFIKDNETPSKKTSPKATS (domain or fragment, S. cerevisiae, UniProt P20676 322-355, looked up, Residues 326–340 were built in the model; also called Nup1 fragment; source: E. coli BL21 (DE3) CodonPlus RIL, purified (Glutathione Sepharose, TEV release, Superdex75); not shown: GST, N-terminal, cleaved)", "note": "[Nup1^322–355]", "values": [{"measurement": "binding result", "setting": "[1]", "result": "binds"}, {"measurement": "binding result", "setting": "[2]", "result": "binds"}, {"measurement": "binding result", "setting": "[3]", "result": "binds"}]}, {"binder": "B1", "values": [{"measurement": "binding result", "setting": "[2]", "result": "binds"}]}, {"binder": "B2", "values": [{"measurement": "binding result", "setting": "[4]", "result": "binds"}]}, {"binder": "B3", "values": [{"measurement": "binding result", "setting": "[5]", "result": "binds"}]}, {"binder": "GST-Nup1^371–500 (domain or fragment, S. cerevisiae, UniProt P20676 371-500, looked up, source: E. coli BL21 (DE3) CodonPlus RIL; immobilised on Glutathione Sepharose 4B from clarified lysate; not shown: GST, N-terminal, kept) DKSTKTAEAPTLSFNFSQKANKTKAVDNTVPSTTLFNFGGKSDTVTSASQPFKFGKTSEKSENHTESDAPPKSTAPIFSFGKQEENGDEGDDENEPKRKRRLPVSEDTNTKPLFDFGKTGDQKETKKGES", "values": [{"measurement": "binding result", "setting": "[6]", "result": "binds"}]}, {"binder": "LKKNIEPKKDKESIVLPTVGFDFIK (domain or fragment, S. cerevisiae, UniProt P20676 316-340, looked up, Nup1, S. cerevisiae, residues 316–340; Residues 330–340 were built in the model; also called Nup1 fragment; source: E. coli BL21 (DE3) CodonPlus RIL, purified (Glutathione Sepharose, TEV release, Superdex75); not shown: GST, N-terminal, cleaved)", "note": "[Nup1^316–340]", "values": [{"measurement": "binding result", "setting": "[7]", "result": "binds"}]}, {"binder": "Sac3^753–805 (domain or fragment, S. cerevisiae, UniProt P46674 753-805, looked up, Sac3, S. cerevisiae, residues 753–805 (BC); also called BC fragment; source: E. coli BL21 (DE3) CodonPlus RIL, purified in complex with Sus1B and Cdc31) EANYRKDFIDTMTRELYDAFLHERLYLIYMDSRAELKRNSTLKKKFFEKWQAS", "values": [{"measurement": "binding result", "setting": "[8]", "result": "binds"}, {"measurement": "binding result", "setting": "[9]", "result": "binds"}]}]}
